Test results reported in patent US20110091994A1, “Methods for Screening Compounds for Treating and/or Preventing an Hepatitis C Virus Infection” (priority 2008, published 2011).
Where two headings read alike, the source gives them in different places.

Legend:
[1] = target: T1, HCV ORFs (Gal4-DB fusions) (Hepatitis C virus genotype 1b, UniProt Q9WMX2); assay type: binding, HCV genotype 1b, isolate con1; conditions: human protein as prey
T1 construct: expressed in transfected cells; host or cells: Saccharomyces cerevisiae MAV203 (IMAP1) / AH109 (IMAP2)

[2] = tested on: HCV ORFs (Gal4-DB fusions); assay type: binding, HCV genotype 1b, isolate con1; conditions: human protein listed by gene symbol; the value names the HCV protein it interacts with
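Also: yeast two-hybrid screens using HCV genotype 1b proteins fused to Gal4-DB as baits against prey cDNA libraries from human spleen and foetal brain, IMAP1 via transformation and IMAP2 via mating.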

Molecule	IMAP Y2H IMAP2 (number of IST) ([1]; HCV protein NS3 as bait)	Interaction with viral protein [2]	IMAP Y2H IMAP2 (number of IST) ([1]; HCV protein NS5A as bait)
C16orf7 (protein, UniProt Q9Y2B5 1-631, looked up) VPS9 domain-containing …: MAAAAGDGTVKPLQSAMKLANGAIELDTGNRPREAYTEYLRSIHYISQVLLEEVETTKEAGETVPPDTSKMLKLAQQCLERAQSTAAKLGKTRLKPTMPAAAPIPQPAGRHRRVYSDEGGKLSPFLPPEIFQKLQGAESQSCKKELTPLEEASLQNQKLKAAYEARMARLDPSQAMQKTSLTLSLQRQMMENLVIAKAREETLQRKMEERRLRLQEAANRRFCSQVALTPEEREQRALYAAILEYEQDHDWPKHWKAKLKRNPGDLSLVTSLVSHLLSLPDHPIAQLLRRLQCSVYSALYPAVSRAAAPAPGCCPPTPNPGSRRLRPSQSLHCMLSPPEPSAAPRPQDSPPTPPLQPGPVGSPSPLGDTASGLPDKDSSFEDLEQFLGTSERQGRGRGVQPEPQLQQLKTAVEEIHNAVDRLLSLTLLAFEGLNTAASKDRCLACIEEPFFSPLWPLLLALYRSVHRAREAALSRSMELYRNAPPTAIGIPTKLLPQNPEAKGATGYPYCAAAQELGLLVLESCPQKKLECIVRTLRIICVCAEDYCPTPEATPQAGPPPIAAAAIGADDLLPILSFVVLRSGLPQLVSECAALEEFIHEGYLIGEEGYCLTSLQSALSYVELLPRGGLAK	1	NS3	–
BCL2A1 (protein, UniProt Q16548 1-175, looked up) Bcl-2-related protein A1: MTDCEFGYIYRLAQDYLQCVLQIPQPGSGPSKTSRVLQNVAFSVQKEVEKNLKSCLDNVNVVSVDTARTLFNQVMEKEFEDGIINWGRIVTIFAFEGILIKKLLRQQIAPDVDTYKEISYFVAEFIMNNTGEWIRQNGGWENGFVKKFEPKSGWMTFLEVTGKICEMLSLLKQYC	1	NS3	–
TP53BP2 (protein, UniProt Q13625 1-1128, looked up) Apoptosis-stimulating of p53 …: MMPMFLTVYLSNNEQHFTEVPVTPETICRDVVDLCKEPGESDCHLAEVWCGSERPVADNERMFDVLQRFGSQRNEVRFFLRHERPPGRDIVSGPRSQDPSLKRNGVKVPGEYRRKENGVNSPRMDLTLAELQEMASRQQQQIEAQQQLLATKEQRLKFLKQQDQRQQQQVAEQEKLKRLKEIAENQEAKLKKVRALKGHVEQKRLSNGKLVEEIEQMNNLFQQKQRELVLAVSKVEELTRQLEMLKNGRIDSHHDNQSAVAELDRLYKELQLRNKLNQEQNAKLQQQRECLNKRNSEVAVMDKRVNELRDRLWKKKAALQQKENLPVSSDGNLPQQAASAPSRVAAVGPYIQSSTMPRMPSRPELLVKPALPDGSLVIQASEGPMKIQTLPNMRSGAASQTKGSKIHPVGPDWSPSNADLFPSQGSASVPQSTGNALDQVDDGEVPLREKEKKVRPFSMFDAVDQSNAPPSFGTLRKNQSSEDILRDAQVANKNVAKVPPPVPTKPKQINLPYFGQTNQPPSDIKPDGSSQQLSTVVPSMGTKPKPAGQQPRVLLSPSIPSVGQDQTLSPGSKQESPPAAAVRPFTPQPSKDTLLPPFRKPQTVAASSIYSMYTQQQAPGKNFQQAVQSALTKTHTRGPHFSSVYGKPVIAAAQNQQQHPENIYSNSQGKPGSPEPETEPVSSVQENHENERIPRPLSPTKLLPFLSNPYRNQSDADLEALRKKLSNAPRPLKKRSSITEPEGPNGPNIQKLLYQRTTIAAMETISVPSYPSKSASVTASSESPVEIQNPYLHVEPEKEVVSLVPESLSPEDVGNASTENSDMPAPSPGLDYEPEGVPDNSPNLQNNPEEPNPEAPHVLDVYLEEYPPYPPPPYPSGEPEGPGEDSVSMRPPEITGQVSLPPGKRTNLRKTGSERIAHGMRVKFNPLALLLDSSLEGEFDLVQRIIYEVDDPSLPNDEGITALHNAVCAGHTEIVKFLVQFGVNVNAADSDGWTPLHCAASCNNVQVCKFLVESGAAVFAMTYSDMQTAADKCEEMEEGYTQCSQFLYGVQEKMGIMNKGVIYALWDYEPQNDDELPMKEGDCMTIIHREDEDEIEWWWARLNDKEGYVPRNLLGLYPRIKPRQRSLA	–	NS5A	2
